Laboratory results taken from the nanobody polyreactivity screen of Harvey et al. (2022).

Experiment: yeast display, Sf9 membrane polyspecificity reagent, FACS + sequencing; frameworks hold sequencing errors
In short: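 Nanobodies from a synthetic yeast display library (Saccharomyces cerevisiae BJ5465), induced 36–48 hours with galactose, were stained 1 hour at 4 °C with 10% biotinylated, detergent-solubilized Sf9 membrane reagent, enriched on streptavidin microbeads, then FACS-sorted. Anti-HA (expression) and streptavidin (reagent binding) fluorescence set low and high (top ~1%) gates. Polyreactivity labels come from the gate of origin. Genes were colony-PCR amplified, MiSeq 2 × 250 sequenced and filtered by CDR length.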

Row | Sequence | polyreactivity (PSR sort gate)
1 | QVQLVESGGGLVQAGGSLRLSCAASGITFTVYAMGWYRQAPGKERELVAAINSVSSTNYADSVKGRFTISRDNAKNTVYLQMNSLKPEVTAVYYCAASYRKLPDKKRYGYWGQGTKVTVSS | high polyreactivity
2 | QVQLVESGGGLVQAGGSLRLSCAASGSIFYFNAMGWYRQAPGKERELVATIRSGDGRTYYADSVKGRFTISRDNAKNTVYLQMNSLKPEDTAVYYCNASRVVYRQAYLYGYDYWGQGTQVTVSS | low polyreactivity
3 | QVQIVESRGGLVQAGGSLRLSCDASGRTILIYAMGWYRQAPRKERELVAAITSGGRTKYADSVKGRFTISRDNGKNTVFLQMNSQKPEDTAVYYCAAESNRLRYYYWGQGSQVTVSS | high polyreactivity
4 | QVQLVESGGGLVQAGGSLRLSCAASGFIFASYTMGWYRQAPGKERELVASISRDGGRTSYADSVKGRFTISRDNAKNTVYLQMNSLKPEDTAVYYCAARYWLRSEYWGQGTQVTVSS | high polyreactivity
5 | QVQLVESGGGLVQAGGSLRLSCAASGSTFAYYMGWYRQAPGKERELVASISTYYADSVKGRFTISRDNAKNTVYLQMNSLKPEDTAVYSCAKGYPDPQWGGVLAYDYWGQGTQVTVSS | low polyreactivity
6 | QVQLVESGGGLVQAGGSLRLSCAASGSTFPVYAMGWYRQAPGKERELVAAISRSGASTYYADSVKGRFTISRDNAKNTVYLQMNSLKPEDTAVYYCARGYQGRLKYEYWGQGTQVTVSS | low polyreactivity
7 | QVQLVESGGGLVQAGGSLRLSCAASGSIFTYYAMGWYRQAPGKERELVAAITWGGSTYADSVKGRFTISRDNAKNTVYLQMNSLKPEDTAVYYCAAQFRSYRYPAYHYDYWGQGTQVTVSS | low polyreactivity
8 | QVQLVESGGGLVQAGGRLRLSCAASGLTFGRYAMGWYRQAPGKERELVAVINGSGGNTYYADSVKGRFTISRDNAKNTVYLQMNSLKPEDTAVYYCAARRTVQYTLYYYPDYNYWGQGTQVTVSS | low polyreactivity
9 | QVQLVESGGRLVQAGGSLRLSCAASGFTFDVYAMGWYRQAPGKERELVASITLRDGSTYYADSVKGRFTISRDNAKNTVYLQMNSLKPEDTAVYYCAADDSRATYEFEYWGQGTQVTVSS | low polyreactivity
10 | QVQLVESGGGLVQAGGSLRLSCAASGSTFVTNGMGWYRQEPGKERELVAAISGNVGSTYYADSVKGRFTISRDNEKNTVYLQMNSLKPEDTAVYYCAARQYRPSDYDYWGQGTQVTVSS | low polyreactivity
11 | QVQLVESGGCLVQAGGSLRLSCAASGSIIYCYAMGWYRQAPGKERELVADISRGGITYYADSVKGRFTISRDNAKNTVYLQMNSLKPEDTAVYYCSKTHYGVQRLDSWGQGTQVTVSS | low polyreactivity
12 | QVQLEESGGGLVQAGRSLRLSCAASGRIFTYYSMGWYRQAPWKERELVAAISRSGRTYYADSVKGRFTISRDNAKNTVYLQMNILIPEDTAVYYCAAEYYYSWFEYWGQGTQVTVSS | high polyreactivity
13 | QVQLVESGGGLVQAGGRLRLSCAPSGSTFSTYAMGSYRQAPGNERELVAVITWRGGSTYYADSVKGRFTISRDNAKNTVYLQMNSLKPEDTAVYYCAAEGESPEYDYWGQGTQVTVSS | low polyreactivity
14 | QVQLVESGGGLVQAGGSLRLSCAASGFTFARNAMGWYRQAPGKERELVAAINRSGGSTYYADSVKGRFTISRDNAKNTVYLQMNRLKPEDTAVYYCNKPRLAQQGYDYWGQGNQVTVSS | high polyreactivity
15 | QVQLVESGGGLVQAGGSLRLSCAASGSTFYTYAMGWYRQATGKERELVAAISWSGGSTYYADSVKGRFTISRDNAKNTVYLQMNSLKPEDPAVYYCAADRPYAGRYWKGYHSALYDYWGQGSQVTVSS | low polyreactivity
16 | QVQLVESAGGLVQAGGSLRLSCAASGRTFKYYAMGWYRQAPGKERELVAAITSTGGSTYYADSVKGRFTISRDNEKNTVYLQMNSLKPEDTAVYYCNRYTQYRDRSDNHWGQGTHVTVSS | high polyreactivity
17 | QVQLVESGGGLVHAGGSLRLSCAASGRTFYAYAMGWYRQAPGKERELVAAISWRGGDTYYADSVKGRFTISRDNAKNTVYLQMNSVKPEVTAVYFCCADVYRYSVYLIRNPMDYWGQGTQVTVSS | low polyreactivity
18 | QVQIVESGGGLVQAGGSLRLSCAASGSIFKYYAMGSYRQAPVKERELVAAISSGGSTKYADSVKARFTISRDNEKNTVYLHMTRLIPEDTAVYYCAARDPSRHARRAYDYWGQGTQVTVSS | low polyreactivity
19 | QVQLVESGGGLVQAGGSLRFRCAASGRIFSYVMGWYRQAPGKERELVAAISTGGGNTYYADSVKGRFTISRDNAKNTVYLQMNSLKPEDTAVYYCAADYYAGTFDYWGQGTQVTVSS | high polyreactivity
20 | QVQLVESGGGLVQAGGSLRLSCAASGYTFRSNVMGWYRQAPGKERELVAAISRGTRTKYADSVKGRFTISRDNAKNTVYLQMNSLKPEDTAVYYCAADTGTGLDWGQGTQVTVSS | high polyreactivity
21 | QVQLVESGGGLVQAGGILRLSCASSGRIFTRYAMGWYRPAPGKEREFVAAINYRGSSTYYADSVKGRFTISRDNAKNTVYLQMNSLKPEETAVDYCNTYGQTDTYWRYYYWGQGTQVTVSS | high polyreactivity
22 | QVQLVESGGGLVQAGGSLRLSCAASGTTFFINDLGWYRQAPGKERELVAAISWSGDSTYYPDSVKGRFTISRDNAKNTVYLQMKSLKPEDTAVYYCAADWGFVQPGWSYNYWGQGTQVTVSS | high polyreactivity

Row | Sequence | polyreactivity (PSR sort gate)
23 | QVQHVESGGGLVQAGGSHRLSSAASGSTFIPNAMRWYRQAPGKERELVAAISGSGGRTYYADSVKGRFTISRDNAKNTVYLQMNSLKPEDTAVYYCAASGTSRSRKSYYWGQGTQVTVSS | high polyreactivity
24 | QVQRVESGGRLVQAGGSLRLSCAACGSTFPGNAMGWYRQAPGKERELVAAISSSGGSTDYADSVKGRFTCSRDNAKNTVYLQLNRLKPEDTAVYSCATKYRFCTYRDIAYPYDYWGQGPQVTVSS | low polyreactivity
25 | QVQQQESGGGLVQAGGSLRLSCAASGTIFQLTVMGRYRQAPGKERELVASIDYGGNTNYADSVKGRFTISRDNAKNTVYLQMHSLKPEDTAVYYCAASSDSWTTHPYWGQGTQVTVSS | low polyreactivity
26 | QVQLVESGGGLVQAGGSLRLSCAASGSIFYGYAMGWYRQAPGKERELVASITGSGGSTSYADSVKGRFTISRDNAKNTVYLQMNSLKPEDTAVYYCNTVLLQLYKLASGYDYWGQGTQVTVSS | high polyreactivity
27 | QVQLVESGGGLVQAGGSLRLSCAASGFIFVNYAMGWNRQAPGKERELVAAISARGGSTNYADSVKGRFTISRDNAKNTVYLQMNSLKPEDTAVYYCAARYTARRQSYGYWGQGTQVTVSS | high polyreactivity
28 | QVQLVESGGGLVQAGGSLRLSCAASGFTIAKYAMGWYRQAPGKERELVAAISSSGGRTYYADSVKGRFTISRDNAKNTVYLQMNSLKPEDTAVYYCAADFSGPFDYWGQGTQVTVSS | high polyreactivity
29 | QVQLVESGGGLVQAGGSLRLSCAASGSTLLIYVMGWYRQAPGKERELVAAISKRSGSTYYADSVKGRFTISRDNAKNTVYLHMNSLKPEDTAVYYCATRPYVRWYDYWGQATQVTVSS | high polyreactivity
30 | QVQIVESGGGLVQAGGRLRLSCAASGSIFSIYDMGWYRQAPGKERELVAAITWGGASTYYADSVKGRFTISRDNAKNTVYLQMNSLKPEDTAVYYCAADSLTWNGTYYYWGQGTQVTVSS | high polyreactivity
31 | QVQLVESGGGLVQAGGSLRLSCAASGFIFYYYAMGWYRQAPGKERELVAAITSSGGSTYYADSVKGRFTISRDNAKNTVYLQKNSLKPEDTAVYYCAAYYHGRMDYWGQGTQVTVSS | high polyreactivity
32 | QVQLQESGGGLVQAGGSLRLSCAQSGTICGWDRMGRYRQAPGKERELVATIDNRGSTNYADSVKGRFTISRDNANNTVYPQKISLKPDDTAVDYCAVVGPTPQYHLYWGQGTQVTVCS | high polyreactivity
33 | QVQLVESGGGLVQAGGSLRLSCAASGLTFQSYDMGWYRPAPGKERELVAAISRRGGSTYYADSVKGRFTISRDNAKNTVYLQLNSLKPEDTAVYYCAAETYYTYWPYGMGYWGQGTQVTVSS | high polyreactivity
34 | QVQLVESGGGLVQAGGSLRLSCAASGSIFKINAMGWYRQAPGKERELVATITWSTGTSYYADSVKGRFTISRDNAKNTVYLQMNSLKPEDTAVYYCATDGDSTKLDYWGQGTQVTVSS | low polyreactivity
35 | QVHLVESCGALVHAGGSLRLSCAASGSIFRGNAMGWYRQAPWKERELVAAITGSGGNTYYADSVKGRFTISRDNAKNTVYLQMNSLKPEDTAVYYCNADGWNTYIGPRRYSYDYWGQGTQVTISS | low polyreactivity
36 | QVQLVESGGGLVQAGGSLRLICAATGSIFPVYAMVWSRQAPGKEREFVARIRFSGGRTYYADSVKGRYTISRDNAMNTVYLQMNSLKPEDTAVYYCAKDFRGYRWSYYWGQGTQVTVSS | high polyreactivity
37 | QVQLVESGGGLVQAGGSLRLSCAASGRIFSYNDMGWYRQAPGKERELVAAISWNSGRTYYADSVKGRFTISRDNAKNTVYLQMNSLKPEDTAVYYCNAPYWKSRFRAYYHWGQGTQVTVSS | high polyreactivity
38 | QVQLVESGGGLVQAGCSLRLSCAASGSTFFPNGMGWYRQAPGKERELVAAITQDGGSTYYADSVKGRFTISRDNAKNTVYLQMNSLKPEDTAVYYCAASAGPYYEYGYWGQGTQVTVSS | low polyreactivity
39 | QHQHVESGGGLDQAGGSLRLSCAASGSTFQIYAMGWYRQAPGKERELVAAIDFSGGSTYYADSVKGRFTISRDNAKYTVYLQMNSLKQEDTAVYYCAADLALYSHFGEYEYWGQGTQVTVSS | low polyreactivity
40 | QVQLVESGGGLVQAGGSLRLSCAASGFIFKWNAMGWYRQAPGKERELVAAITSGGGTYYADSVKGRFTISRDNAKNTVYLQMNSLKPEDTAVYYCAGYGYWGQGTQVTVSS | high polyreactivity
41 | QVQLVESGGGLLQAGGSLRLSCAASGRTFRYYAMGWYRQAPGKERELVAAISSGGSSTYYADSVKGRFTISRDNAKNTVYLQMNSLKPEDTAVYYCAAGYYPFNYWGQGTQVTVSS | high polyreactivity
42 | QVQLVESGGGLVQAGGSLRLSCAASGSTFWYYAMGWYRQAPGKERELVAGITQSGGSTYYADSVKGRFTISRDNEKNTVYLQMNRLKPEDTAVYYCAKDGRVSGDFDYWGQGTQVTVSS | low polyreactivity
43 | QVQLVESGGGLVQAGGSLLLSCAASGNIIYSNALGWYRQGPGKERELVAAISSGGITYYADSVKGRFTISRDNAKNTVYLQMNSLKPEDTAVYYCAAYIRNWRATYEYWGQGTQVTVSS | high polyreactivity
